Results as given in PMC11383277 (bioRxiv, 2024).

Molecular target: human NaV1.8 alpha-subunit (human, UniProt Q9Y5Y9 1-1956, M1713V)
Assay: cryo-EM structure

ECRYWLGGCSAGQTCCKHLVCSRRHGWCVWDGTFS [Protoxin-I]: binds.
